# Laboratory results as given in paper PMC6237750.
# Tests used:
# [1] = target: T1, DNA polymerase beta I260Q (NMR, crystal) (UniProt P06746 1-335, I260Q); test: NMR; binary, 10 mM MgCl2; NMR: 50 mM HEPES, 100 mM KCl, 2 mM DTT, 10 mM MgCl2, 10% D2O, pH 7.4; crystals: 18-20% PEG 3350, 50 mM HEPES pH 7.5, 175-250 mM Na acetate, 2 mM TCEP, 1% tert-b
# [2] = target: T1, DNA polymerase beta I260Q (NMR, crystal); test: X-ray crystallography; binary; NaI soak; NMR: 50 mM HEPES, 100 mM KCl, 2 mM DTT, 10 mM MgCl2, 10% D2O, pH 7.4; crystals: 18-20% PEG 3350, 50 mM HEPES pH 7.5, 175-250 mM Na acetate, 2 mM TCEP, 1% tert-b
Binder,binding result [1],binding result [2]
NMR substrate template T (20) (dsDNA) DNA 1: CGACCGACTGCGCATCAGCC DNA 2: GGCTGATGCGC DNA 3: GTCGGTCG,binds,–
X-ray substrate template A (16) (dsDNA) DNA 1: CCGACAGCGCATCAGC DNA 2: GCTGATGCGC DNA 3: GTCGG,–,binds
